Assay results from PMC4070737 (Cytoskeleton (Hoboken, N.J.), 2013).

Molecular target: the molecule itself
Assay: AUC

B1: EB1_(248), activated fragment of human EB1 lacking the autoinhibitory tail domain (domain or fragment, UniProt Q15691 1-248, looked up)
chain: MAVNVYSTSVTSDNLSRHDMLAWINESLQLNLTKIEQLCSGAAYCQFMDMLFPGSIALKKVKFQAKLEHEYIQNFKILQAGFKRMGVDKIIPVDKLVKGKFQDNFEFVQWFKKFFDANYDGKDYDPVAARQGQETAVAPSLVAPALNKPKKPLTSSSAAPQRPISTQRTAAAPKAGPGVVRKNPGVGNGDDEAAELMQQVNVLKLTVEDLEKERDFYFGKLRNIELICQENEGENDPVLQRIVDILYA
**Q.** For B1, which “stoichiometry N” value is on record?
**A.** The value was 2.
